Columns and labels:
rat PAI-1 [1] = target: T1, rat PAI-1 (rat, UniProt P20961 24-402); test: cell-based or functional assay
T1 sequence: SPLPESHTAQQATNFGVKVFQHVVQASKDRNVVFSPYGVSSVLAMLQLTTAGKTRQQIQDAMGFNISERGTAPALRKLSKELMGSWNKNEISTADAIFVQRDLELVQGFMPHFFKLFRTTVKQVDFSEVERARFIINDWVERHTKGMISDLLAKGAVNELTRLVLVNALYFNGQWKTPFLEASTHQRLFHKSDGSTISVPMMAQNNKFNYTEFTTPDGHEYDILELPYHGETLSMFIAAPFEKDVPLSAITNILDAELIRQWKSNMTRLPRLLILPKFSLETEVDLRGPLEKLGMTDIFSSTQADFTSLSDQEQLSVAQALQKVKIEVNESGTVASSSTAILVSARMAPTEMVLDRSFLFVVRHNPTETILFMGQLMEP

cynomolgus PAI-1 [2] = target: T2, cynomolgus PAI-1 (cynomolgus, UniProt P05121 24-402 (human entry), limits assumed); test: cell-based or functional assay
rat PAI-1 [3] = target: T1, rat PAI-1; test: cell-based or functional assay; remark: listed apart in the source
mouse PAI-1 [4] = target: T3, mouse PAI-1 (mouse, UniProt P22777 24-401); test: cell-based or functional assay
T3 sequence: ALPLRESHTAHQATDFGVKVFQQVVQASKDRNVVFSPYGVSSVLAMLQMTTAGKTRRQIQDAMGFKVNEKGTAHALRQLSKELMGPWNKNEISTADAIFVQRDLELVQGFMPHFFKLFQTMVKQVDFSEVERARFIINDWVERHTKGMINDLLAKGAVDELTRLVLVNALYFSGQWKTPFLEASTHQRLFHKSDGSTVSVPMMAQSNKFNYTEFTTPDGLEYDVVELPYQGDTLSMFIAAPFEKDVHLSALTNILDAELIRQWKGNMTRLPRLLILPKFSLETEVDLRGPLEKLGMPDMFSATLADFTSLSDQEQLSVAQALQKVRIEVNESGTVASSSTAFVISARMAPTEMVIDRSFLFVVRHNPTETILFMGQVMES

[5] = target: T4, active human PAI-1, recombinant, wild-type, non-glycosylated (E. coli) (human, UniProt P05121 24-402); test: cell-based or functional assay
mouse PAI-1 [6] = target: T3, mouse PAI-1; test: cell-based or functional assay; remark: listed apart in the source
[7] = target: T4, active human PAI-1, recombinant, …; test: cell-based or functional assay; remark: listed apart in the source
[8] = target: T4, active human PAI-1, recombinant, …; test: cell-based or functional assay; remark: listed apart in the source
cynomolgus PAI-1 [9] = target: T2, cynomolgus PAI-1; test: cell-based or functional assay; remark: listed apart in the source
rabbit PAI-1 = target: T5, rabbit PAI-1 (rabbit); test: competition ELISA, IgG on plate, biotinylated active human PAI-1 against titrated unlabelled competitor
T5 chain: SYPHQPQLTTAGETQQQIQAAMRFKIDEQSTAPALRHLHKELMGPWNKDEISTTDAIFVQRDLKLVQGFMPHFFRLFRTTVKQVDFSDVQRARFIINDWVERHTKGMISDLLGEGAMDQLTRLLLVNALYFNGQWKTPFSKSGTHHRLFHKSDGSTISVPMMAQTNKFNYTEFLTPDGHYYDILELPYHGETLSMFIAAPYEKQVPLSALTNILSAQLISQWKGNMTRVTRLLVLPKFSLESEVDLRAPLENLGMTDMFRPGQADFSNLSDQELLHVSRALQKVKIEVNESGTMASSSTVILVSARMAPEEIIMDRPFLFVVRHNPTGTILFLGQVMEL

rat PAI-1 [10] = target: T1, rat PAI-1; test: as above
mouse PAI-1 [11] = target: T3, mouse PAI-1; test: as above
latent human PAI-1 = target: T6, latent human PAI-1 (human, UniProt P05121 24-402); test: as above
T6 construct: also called latent PAI-1

Binder | Chromogenic (IC50 in nM) rat (rat PAI-1 [1]) [nM] | Chromogenic (IC50 in nM) cyno (cynomolgus PAI-1 [2]) [nM] | HT-1080 Exo PAI-1 (IC50 in nM) rat (rat PAI-1 [3]) [nM] | HT-1080 Exo PAI-1 (IC50 in nM) mouse (mouse PAI-1 [4]) [nM] | HT-1080 Exo PAI-1 (IC50 in nM) human [5] [nM] | IC50 ratio rabbit/wt (rabbit PAI-1) [fold] | also measured
Antibody 14 scFv (scFv) QVQLQQSGAEVKKPGSSVKVSCKASGGTFSSYAISWVRQAPGQGLEWMGGIIPTFGTANYAQKFQGRVTITADESTSTAYMELSGLRSEDTAVYYCAREKRQWLEGHFDYWGRGTLVTVSSDIQMTQSPSFLSASIGDRVTITCRASEGIYHNLAWYQQKPGKAPKLLIYRASSLASGAPSRFSGSGSGTDFTFTISSLQPDDFATYYCQQYSNYPLTFGGGTKLEIK | 23.1 | 0.8 | 52 | 22 | 28 |  | 
Antibody 15 scFv (scFv) QVQLQQSGAEVKKPGSSVKVSCKASGGTFSSYAISWVRQAPGQGLEWMGGIIPTFGTANYAQKFQGRVTITADESTSTAYMELSGLRSEDTAVYYCAREKRQWLEGHFDYWGRGTPVTVSSDIQMAQSPSFLSASIGDRVTITCRASEGIYHNLAWYQQKPGKAPKLLIYRASSLASGAPSRFSGSGSGTDFTLTISSLQPDDFATYYCQQYSNYPLTFGGGTKLEIR | 64.2 | 2.2 | 57 | 37 | 36 |  | Chromogenic IC50 ratio rat/human (rat PAI-1 [1]): 8.9 fold; Chromogenic (IC50 in nM) mouse (mouse PAI-1 [6]): 66.9 nM; Chromogenic IC50 ratio mouse/human (mouse PAI-1 [6]): 9.3 fold; Chromogenic (IC50 in nM) human [7]: 7.2 nM; Chromogenic IC50 ratio cyno/human (cynomolgus PAI-1 [2]): 0.3 fold
Antibody 16 scFv (scFv) QVQLVQSGAEVKKPGSSVKVSCKASGGTFSSYAISWVRQAPGQGLEWMGGIIPTFGTANYAQKFQGRVTITADESTSTAYMELSSLRSEDTAVYYCAREKRQWLEGHFDYWGRGTLVTVSSDIQMTQSPSTLSASVGDRVTITCRASESIYHSLAWYQQKPGKAPKLLIYKASSLASGVPSRFSGSRSGTEFTLTISSLQPDDFATYYCQQYSNYPLTFGGGTKVEIK | 5.6 |  | 52.6 | 17.6 | 16.9 |  | Chromogenic (IC50 in nM) mouse (mouse PAI-1 [6]): 4.3 nM; IC50, human chromogenic assay (FIG. 2a) [8]: 3.6 nM; IC50, cyno chromogenic assay (FIG. 2b) (cynomolgus PAI-1 [9]): 0.8 nM
Antibody 20 IgG1, not germlined (antibody, V domains shown, IgG1; also called Ab 20) VH: QVQLQQSGAEVKKPGSSVKVSCKASGGTFSSYAISWVRQAPGQGLEWMGGIIPTFGTANYAQKFQGRVTITADESTSTAYMELSSLRSEDTAVYYCAREKRQWLEGHFDYWGRGTLVTVSS VL: DIQMTQSPSTLSASVGDRVTITCRASEGIYHELAWYQQKPGKAPKLLIYRASSLASGVPSRFSGSRSGTEFTLTISSLQPDDFATYYCQQYSDYPLTFGGGTKVEIK |  |  |  |  |  | 9.1 | Chromogenic IC50 ratio rat/human (rat PAI-1 [1]): 1.8 fold; Chromogenic IC50 ratio mouse/human (mouse PAI-1 [6]): 0.9 fold; Chromogenic IC50 ratio cyno/human (cynomolgus PAI-1 [2]): 0.5 fold; IC50 ratio rat/wt (rat PAI-1 [10]): 2.3 fold; IC50 ratio mouse/wt (mouse PAI-1 [11]): 7.6 fold; IC50 ratio latent/wt (latent human PAI-1): 7.5 fold
Antibody 27 IgG1, not germlined (antibody, V domains shown, IgG1; also called Ab 27) VH: QVQLQQSGAEVKKPGSSVKVSCKASGGAFSSYAISWVRQAPGQGLEWMGGIIPTFGTANYAQKFQGRVTITADESTSTAYMELSGLRSEDTAVYYCAREKRQWLEGHFDYWGRGTPVTVSS VL: DIQMTQSPSFLSASIGDRVTITCRASEGIYHNLAWYQQKPGKAPKLLIYRASSLASGAPSRFSGSGSGTDFTLTISSLQPDDFATYYCQQYSNYPLTFGGGTKLEIK |  |  |  |  |  | 85 | Chromogenic IC50 ratio rat/human (rat PAI-1 [1]): 5.4 fold; Chromogenic IC50 ratio mouse/human (mouse PAI-1 [6]): 3.3 fold; IC50 ratio rat/wt (rat PAI-1 [10]): 1.2 fold; IC50 ratio mouse/wt (mouse PAI-1 [11]): 6.1 fold; IC50 ratio latent/wt (latent human PAI-1): 6.8 fold
Antibody 20 scFv (scFv) QVQLQQSGAEVKKPGSSVKVSCKASGGTFSSYAISWVRQAPGQGLEWMGGIIPTFGTANYAQKFQGRVTITADESTSTAYMELSSLRSEDTAVYYCAREKRQWLEGHFDYWGRGTLVTVSSDIQMTQSPSTLSASVGDRVTITCRASEGIYHELAWYQQKPGKAPKLLIYRASSLASGVPSRFSGSRSGTEFTLTISSLQPDDFATYYCQQYSDYPLTFGGGTKVEIK |  | 1.3 | 42.4 | 18.1 | 19.1 |  | Chromogenic (IC50 in nM) mouse (mouse PAI-1 [6]): 4.9 nM
Antibody 27 scFv (scFv) QVQLQQSGAEVKKPGSSVKVSCKASGGAFSSYAISWVRQAPGQGLEWMGGIIPTFGTANYAQKFQGRVTITADESTSTAYMELSGLRSEDTAVYYCAREKRQWLEGHFDYWGRGTPVTVSSDIQMTQSPSFLSASIGDRVTITCRASEGIYHNLAWYQQKPGKAPKLLIYRASSLASGAPSRFSGSGSGTDFTLTISSLQPDDFATYYCQQYSNYPLTFGGGTKLEIK | 49.8 | 2.2 | 33.8 | 16.4 | 18.8 |  | 
Antibody 09 scFv (scFv) QVQLQQSGAEVKKPGSSVKVSCKASGGTFSSYAISWVRQAPGQGLEWMGGIIPAFDTANYAQKFQGRVTITADESTSTAYMELSGLRSEDTAVYYCAREKRQWLEGHFDYWGRGTPVTVSSDIQMTQSPSFLSASIGDRVTITCQASEGIYHNLAWYQQKPGKAPKLLIYRASSLASGAPSRFSGSGSGTDFTLTISSLQPDDFATYYCQQYSNYPLTFGGGTKLEIK | 29.7 | 0.7 | 52.7 | 21 | 23 |  | 
Antibody 01 IgG4, not germlined (antibody, V domains shown, IgG4; also called Ab 01) VH: QVQLVQSGAEVKKPGSSVKVSCKASGGTFSSYAISWVRQAPGQGLEWMGGIIPIFGTANYAQKFQGRVTITADESTSTAYMELSSLRSEDTAVYYCAREKRQWLEGHFDYWGRGTLVTVSS VL: DIQMTQSPSTLSASVGDRVTITCRASEGIYRSLAWYQQKPGKAPKLLIYKASSLASGVPSRFSGSGSGTEFTLTISSLQPDDFATYYCQQYSNYPLTFGGGTKVEIK |  |  |  |  |  | 9 | 
Antibody 02 IgG4, not germlined (antibody, V domains shown, IgG4; also called Ab 02) VH: QVQLVQSGAEVKKPGSSVKVSCKASGGTFSSYAISWVRQAPGQGLEWMGGIIPTFGTANYAQKFQGRVTITADESTSTAYMELSSLRSEDTAVYYCAREKRQWLEGHFDYWGRGTLVTVSS VL: DIQMTQSPSTLSASVGDRVTITCRASEGIYHSLAWYQQKPGKAPKLLIYKASSLASGVPSRFSGSGSGTEFTLTISSLQPDDFATYYCQQYSDYPLTFGGGTKVEIK |  |  |  |  |  | 4.8 | 
Antibody 16 IgG1, not germlined (antibody, V domains shown, IgG1; also called Ab 16) VH: QVQLVQSGAEVKKPGSSVKVSCKASGGTFSSYAISWVRQAPGQGLEWMGGIIPTFGTANYAQKFQGRVTITADESTSTAYMELSSLRSEDTAVYYCAREKRQWLEGHFDYWGRGTLVTVSS VL: DIQMTQSPSTLSASVGDRVTITCRASESIYHSLAWYQQKPGKAPKLLIYKASSLASGVPSRFSGSRSGTEFTLTISSLQPDDFATYYCQQYSNYPLTFGGGTKVEIK |  |  |  |  |  | 7.9 | 

Source: US20130266566A1 (AbbVie / Abbott, published 2013)
